Data published in the supplement of paper PMC9732359.
± gives the uncertainty stated by the source.

assay: protein stability index of a GFP-peptide fusion (yeast GPS) (PSI 1-4); higher = more stable; sorted into four equal gates, so the index is relative within each strain; conditions: doa10∆
Method in brief: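 For each peptide, the protein stability index sums the read frequency in every gate after multiplying it by the gate number. Read frequencies came from plasmids that were PCR-amplified from each gate and Illumina-sequenced, with reads assigned to strains by barcodes. The gates were four equal bins of GFP/Cherry fluorescence ratio applied to mid-log yeast in leucine-free medium carrying a pooled library of tiled 17-residue yeast protein peptides fused downstream of GFP on a Cherry-expressing plasmid.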

First: LFPEQQNKEIKAERVED [RPL6A]
Second: LFPIVKKHGKTDYFLPK [YJL039C/NUP192]
The protein stability index of the first is higher: 3.61 ± 0.11 for the first, 2.46 ± 0.2 for the second.

First: LFPNELYNVMGINKKKL [RPC31]
Second: LFSKNRNEVLESMDFLV [YCS4]
The protein stability index of the first is higher: 3.09 ± 0.27 for the first, 2.08 ± 0.05 for the second.

Going from LGDMAVCFNNLVDENTD [YCS4] to LGFTPGELRSYLKGATG [FAS1], the protein stability index rises from 2.61 ± 0.068 to 3.26 ± 0.15.

Compared with LGIALIALGEDIGKEMS [RPN1], LGINLVTADTVILFDSD [ISW2] is lower in protein stability index: 3.01 ± 0.081 for the first, 2.53 ± 0.1 for the second.

LGKKGVPYVVTHDGRTI [RPS4A] and LGLKFDDLIAEENPIMQ [QCR7] are within error of each other in protein stability index: 2.43 ± 0.068 for the first, 2.46 ± 0.28 for the second.

LGNDIPHDLIIGTADIF [BRR2] and LGNVDAFQLADGIHYIL [PRP8] are within error of each other in protein stability index: 2.6 ± 0.055 for the first, 2.74 ± 0.15 for the second.

LGPLSYQNMAFITAKDK [YJR042W/NUP85] and LGYARFILLDRLRQFNL [SMC4] are within error of each other in protein stability index: 2.43 ± 0.075 for the first, 2.36 ± 0.061 for the second.

Compared with LGYPPISLVDDIINAVN [MTW1], LHANGASFFFMVMFMHM [COB] is lower in protein stability index: 2.46 ± 0.076 for the first, 1.75 ± 0.037 for the second.

Compared with LHVLPTLNSRALSGLYY [SNM1], LHYIPKYNRYEKRHKNV [RPS11A] is lower in protein stability index: 2.45 ± 0.052 for the first, 2.06 ± 0.063 for the second.

Compared with LIAIVSKLLQTTLKLSP [NUT1], LIEKVDDTAANNGDKDH [YIL149C/MLP2] is higher in protein stability index: 2.19 ± 0.042 for the first, 3.09 ± 0.099 for the second.

Going from LIESLNTIRQNVTSSGD [YML103C/NUP188] to LIGRPPLLVPGMTPCTV [FAS1], the protein stability index rises from 1.13 ± 0.064 to 1.32 ± 0.071.

Going from LIIQYPPNNARRTYNTL [ISW2] to LIPCKYLNRHADFFVRE [RPN7], the protein stability index rises from 2.09 ± 0.037 to 2.62 ± 0.092.

First: LIRFDESITKAMEFIFG [SMC2]
Second: LISGAGANPRVLSTFTA [RPN10]
The protein stability index of the first is higher: 2.45 ± 0.082 for the first, 2.16 ± 0.11 for the second.

Going from LISIHSRENNSEYMVFG [YJL039C/NUP192] to LISSSLSNLSKDIKANL [YCS4], the protein stability index falls from 3.03 ± 0.11 to 2.26 ± 0.057.

Compared with LISSSQDMQLKIWSVKD [RPN14], LITSSARKELPIFDYIH [SIR3] is lower in protein stability index: 2.7 ± 0.12 for the first, 2.16 ± 0.056 for the second.

First: LIYHLKDCAEVDSRTKI [IRR1]
Second: LKAQITSLKCLVNRKPI [SNF2]
The protein stability index of the first is higher: 3.23 ± 0.086 for the first, 2.05 ± 0.045 for the second.

Going from LKDFNTERVVEIGPSPT [FAS2] to LKENNAILQKSLKNVTE [YIL149C/MLP2], the protein stability index falls from 2.888 ± 0.024 to 2.67 ± 0.049.

Going from LKEVLYNDSATSGEAAA [RPN2] to LKEVPTYRYVSVSVLVD [RPS25A], the protein stability index rises from 1.45 ± 0.057 to 2.64 ± 0.079.

LKEYQSKIIVFPRDGKA [RPL13B] and LKEYQSKIIVFPRNGKA [RPL13A] are within error of each other in protein stability index: 2.95 ± 0.082 for the first, 3.04 ± 0.088 for the second.

LKIYAQIEKKEIKKMII [YCG1] and LKLENLHVVSKSSIEKD [SIN4] are within error of each other in protein stability index: 3.06 ± 0.059 for the first, 3.13 ± 0.094 for the second.

Compared with LKLNTSLPSKLTKYKEM [SRP68], LKLSMADYNGALLRVTK [POP4] is higher in protein stability index: 1.77 ± 0.075 for the first, 2.82 ± 0.076 for the second.

Going from LKNYVLNELHPTLPTNH [PRP8] to LKPKLYYEQFRPDLIKE [SIR3], the protein stability index rises from 2.73 ± 0.047 to 3.06 ± 0.073.

Compared with LKRSTELLETVSLTKRK [YIL149C/MLP2], LKSLNDIETQLCSMLQE [MED11] is higher in protein stability index: 1.66 ± 0.056 for the first, 2.54 ± 0.084 for the second.

First: LKSLYSFFNISPDAPKE [SIN4]
Second: LKTKLLEEVEGSCTGKF [RPB7]
The protein stability index of the first is lower: 2.32 ± 0.093 for the first, 3.53 ± 0.29 for the second.

First: LKTVLHNGRDKIQFHIH [RGR1]
Second: LKYHDFLRKATAFNKTR [RPL16B]
The protein stability index of the first is lower: 1.49 ± 0.047 for the first, 2.98 ± 0.047 for the second.

Compared with LKYYQDLKNTRMKSITS [SNF5], LLDAYSHIESDSTSHNN [MED1] is higher in protein stability index: 1.45 ± 0.23 for the first, 2.73 ± 0.051 for the second.

Going from LLEGLNEKIEKRSDLTG [UBP6] to LLESYKTLSLKSMASAF [RPN7], the protein stability index falls from 2.89 ± 0.092 to 1.67 ± 0.093.

Compared with LLGIFDDIFIPQNMLFE [RPC25], LLGTMAGGAADCQFWET [PRE2] is lower in protein stability index: 2.33 ± 0.15 for the first, 1.61 ± 0.069 for the second.

Going from LLHERKLLNDLALENGE [NUT1] to LLIISCIIFITFEFINI [YML031W/NDC1], the protein stability index falls from 2.75 ± 0.06 to 1.29 ± 0.038.

Compared with LLISYGVSIENENKVII [SRB4], LLKDIFANNLKSAISNN [SIR4] is higher in protein stability index: 2.1 ± 0.096 for the first, 2.46 ± 0.044 for the second.

First: LLKEEKIIELMNKIFTI [YML103C/NUP188]
Second: LLKLERKKTEAVARLKS [SNF2]
The protein stability index of the first is higher: 2.81 ± 0.088 for the first, 1.89 ± 0.068 for the second.

Going from LLLAANTHLGARNVQVH [RPS0A] to LLLDNGFNMKKITTSTE [SRP68], the protein stability index rises from 1.93 ± 0.04 to 2.19 ± 0.18.

Going from LLLKDQQTAKKLIPKLY [ECM29] to LLLKKLDNFQKSVEKTM [SMC3], the protein stability index rises from 2.1 ± 0.054 to 2.54 ± 0.2.

Going from LLLTIQLLIIEKEWENA [SRP72] to LLNDECTESTRENALYD [SNF2], the protein stability index rises from 1.42 ± 0.053 to 3.39 ± 0.2.

Going from LLNEYRPHQSRESLIML [MED7] to LLNHGERAELETDEYIS [RPN1], the protein stability index falls from 2.31 ± 0.074 to 1.55 ± 0.16.

First: LLNLPPFQVSSFVKETK [SRB8]
Second: LLPANLLSLNSVRSLQK [SRP68]
The protein stability index of the first is lower: 1.94 ± 0.039 for the first, 2.71 ± 0.059 for the second.

Going from LLQEGGSLSGNSSSMEE [ESC2] to LLQKMLNLLNYQELFIQ [YML103C/NUP188], the protein stability index falls from 2.97 ± 0.11 to 2.4 ± 0.053.

First: LLRPSSKVIIKFLQVMQ [RPS22B]
Second: LLRSRLATRRVLQEYRL [RPO21]
The protein stability index of the first is lower: 1.87 ± 0.069 for the first, 2.62 ± 0.067 for the second.

First: LLTKNVSCYRPRRDGER [RPS6A]
Second: LLVFRNADLDLDEMELH [YDL116W/NUP84]
The protein stability index of the first is lower: 1.24 ± 0.22 for the first, 3.01 ± 0.074 for the second.

First: LLVIGGNQRKILQYSRT [YJR042W/NUP85]
Second: LLVKLSKRLPLRFPEHT [BRR2]
The protein stability index of the first is lower: 1.86 ± 0.091 for the first, 2.3 ± 0.063 for the second.

First: LMETLRTLRRKGDINPE [RPB2]
Second: LMRQALAIKDSKKRFAA [RPO21]
The protein stability index of the first is higher: 3.08 ± 0.1 for the first, 1.83 ± 0.062 for the second.

LMTHITTDDEEEPIKKL [RET1] and LNEIKEHKIVVLGNSRG [RPN14] are within error of each other in protein stability index: 3.42 ± 0.27 for the first, 3.57 ± 0.19 for the second.

First: LNEYKRETLVKTWEKVT [SMC2]
Second: LNFKDDKKYKGLTTVWL [REC8]
The protein stability index of the first is lower: 1.67 ± 0.046 for the first, 2.71 ± 0.064 for the second.

LNGILADEMGLGKTIQT [SNF2] and LNHRNKNQHRAASWYGS [RMP1] are within error of each other in protein stability index: 2.91 ± 0.11 for the first, 2.86 ± 0.092 for the second.

Going from LNLDSLLVDQKQLNSLR [SMD1] to LNNLPYKNEDVTALLEQ [YCS4], the protein stability index rises from 2.51 ± 0.051 to 2.9 ± 0.058.

Compared with LNSNIRAGVTIPSIPNP [SNF5], LNSNNSIIGNKNNNYTW [REC8] is higher in protein stability index: 2.57 ± 0.075 for the first, 2.86 ± 0.14 for the second.

First: LNTFHFAGVASKKVTSG [RPO21]
Second: LNVGNVLPLGSVPEGTI [RPL2A]
The protein stability index of the first is lower: 2.67 ± 0.093 for the first, 3.2 ± 0.077 for the second.

Going from LNVVMKNLERLRGEYND [SMC4] to LPAPPVCIRPSVMMQDS [RPO31], the protein stability index falls from 3.26 ± 0.092 to 1.61 ± 0.081.

Compared with LPIESQFVSKLVDNLNA [BRR2], LPKIIQLQGPQWMNEMV [SOH1] is higher in protein stability index: 2.32 ± 0.052 for the first, 3.15 ± 0.088 for the second.

LPKLNLPKYQTIQYDPP [SNF5] and LPQCIIPSSYIKRTDEG [ARP7] are within error of each other in protein stability index: 2.53 ± 0.22 for the first, 2.77 ± 0.1 for the second.

Going from LPRYQELTKEEAMYKLQ [SMC3] to LPSAVDGENDKKEATKP [YLR335W/NUP2], the protein stability index rises from 3.02 ± 0.12 to 3.36 ± 0.082.

same assay, conditions: pdr5∆

In the case of LFLTAPDSCNMQEKAAH [YCS4], the protein stability index is reported as 2.67 ± 0.24.
